Results: patent US20230190869A1, “PEPTIDE INHIBITORS OF GUANINE NUCLEOTIDE EXCHANGE FACTOR H-1” (UCL Business Ltd, priority 2020, published 2023)
Numbered stars: 1 amine (or outer) side, 2 acyl side, 3 side chain; on linkers, the order of the positions; unused ones are H or OH. Bridge positions count the residues as written; N and C are the ends. Square brackets hold non-standard residues; d marks the D form. Ends that are not written are not given here. Peptide text beside a SMILES is read from it. ξ: configuration not given here. ξαMeNle(6-ylidene) = CC(CCCC=[*:3])(N[*:1])C(=O)[*:2]

Legend:
[1] = system: interaction between RhoA and constitutively active GEF-H1 (DH/PH module); test: GST-RhoA pulldown of constitutively active GEF-H1 from cell extracts; type: binding; settings: GST-RhoA pull down, FIG. 5
Procedure: Recombinant fusion proteins of GST and RhoA were used for pulldown of constitutively active GEF-H1 from cell extracts. (A) Candidate peptide inhibitors were added to the pulldown. (B, C) Recombinant fragments from the CTD of GEF-H1 were added. Note, the further analysed P5 and F1 peptide inhibitors both block the interaction between RhoA and active GEF-H1.
2) Active GEF-H1 binds with high affinity to nucleotide-free and GDP-bound RhoA, its physiological substrate. […] Thus, both F1 and P5 block GEF-H1 function by the same mechanism. Based on these functional and biochemical assays (FIGS. 4 and 5), F1 and P5 were selected for further analysis and refinement. Membrane permeable derivatives were synthesized for both inhibitors: TAT-F1 and TAT-P5.
The P5 sequence and modified versions thereof, are derived from the interaction surface of RhoA with the active site of GEF-H1 (i.e., the DH domain). […] The same is true for the F1 sequence, as it blocks binding of RhoA to a DH/PH domain construct (FIG. 5).

[2] = molecular target: T1, GEF-H1 (Canis lupus familiaris, UniProt Q865S3); test: GEF-H1 overexpression-induced cell spreading / cell shape morphological assay; type: cell-based
T1 sequence (Q865S3 1-986): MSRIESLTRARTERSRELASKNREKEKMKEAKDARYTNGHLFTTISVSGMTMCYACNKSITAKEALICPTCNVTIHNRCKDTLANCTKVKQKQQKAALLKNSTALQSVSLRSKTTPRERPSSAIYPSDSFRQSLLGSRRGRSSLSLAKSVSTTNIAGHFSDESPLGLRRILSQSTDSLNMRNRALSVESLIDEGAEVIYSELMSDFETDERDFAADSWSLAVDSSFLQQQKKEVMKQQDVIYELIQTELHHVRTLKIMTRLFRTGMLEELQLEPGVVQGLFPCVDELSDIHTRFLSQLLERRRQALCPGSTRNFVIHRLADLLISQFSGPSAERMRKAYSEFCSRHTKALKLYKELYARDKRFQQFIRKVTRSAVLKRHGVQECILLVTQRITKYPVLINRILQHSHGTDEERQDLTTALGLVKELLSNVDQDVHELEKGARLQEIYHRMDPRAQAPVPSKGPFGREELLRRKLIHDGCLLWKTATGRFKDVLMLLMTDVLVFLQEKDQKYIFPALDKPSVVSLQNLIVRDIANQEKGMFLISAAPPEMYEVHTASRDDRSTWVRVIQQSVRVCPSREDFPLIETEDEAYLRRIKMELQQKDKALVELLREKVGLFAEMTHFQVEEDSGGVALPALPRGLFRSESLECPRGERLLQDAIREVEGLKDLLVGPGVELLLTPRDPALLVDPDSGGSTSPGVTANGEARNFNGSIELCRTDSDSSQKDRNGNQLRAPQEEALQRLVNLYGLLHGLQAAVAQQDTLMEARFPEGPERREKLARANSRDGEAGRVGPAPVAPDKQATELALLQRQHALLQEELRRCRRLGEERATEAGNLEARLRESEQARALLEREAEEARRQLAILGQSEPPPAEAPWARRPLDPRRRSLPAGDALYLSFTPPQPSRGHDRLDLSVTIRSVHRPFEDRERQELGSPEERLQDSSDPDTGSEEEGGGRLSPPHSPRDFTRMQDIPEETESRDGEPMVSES

[3] = system: MDCK and HEK293 cells; test: Cell toxicity: caspase 3/7 activity in cell extracts (apoptosis); type: cell-based
Procedure: (§1) (A and B) MDCK and HEK293 cells were incubated as described in previous figures with TAT-F1 or TAT-P5. Cell toxicity was then assessed by measuring release of LDH in the medium and caspase 3/7 activity in cell extracts. […] Direct lysis of cells served as a positive control in (A) whereas active caspases were used as controls in (B).
as §1, with “stapled-P5.” for “TAT-F1 or TAT-P5.”, “for LDH release” for “in (A)”, “used” for “used as controls”, “caspase assays.” for “(B).”
(§2) The potency of GEF-H1 inhibitors was analysed in cell-based assays to determine effectiveness of inhibition of GEF-H1 signalling and specificity for GEF-H1, and in cell-based assays modelling epithelial degeneration or inflammatory disease. Potential toxicity of the inhibitors was determined by measuring apoptosis (Caspase3/7 activation) and necrosis (release of […]).

[4] = system: MDCK and HEK293 cells; test: Cell toxicity: release of LDH in the medium (necrosis); type: cell-based
Procedure: as §1
as §1, with “stapled-P5.” for “TAT-F1 or TAT-P5.”, “for LDH release” for “in (A)”, “used” for “used as controls”, “caspase assays.” for “(B).”
as §2

[5] = molecular target: T2, p114RhoGEF (Homo sapiens, UniProt Q6ZSZ5); test: p114RhoGEF-induced cell rounding in MDCK cells (specificity); type: cell-based
T2 sequence (Q6ZSZ5 1-1015 isoform Q6ZSZ5-2): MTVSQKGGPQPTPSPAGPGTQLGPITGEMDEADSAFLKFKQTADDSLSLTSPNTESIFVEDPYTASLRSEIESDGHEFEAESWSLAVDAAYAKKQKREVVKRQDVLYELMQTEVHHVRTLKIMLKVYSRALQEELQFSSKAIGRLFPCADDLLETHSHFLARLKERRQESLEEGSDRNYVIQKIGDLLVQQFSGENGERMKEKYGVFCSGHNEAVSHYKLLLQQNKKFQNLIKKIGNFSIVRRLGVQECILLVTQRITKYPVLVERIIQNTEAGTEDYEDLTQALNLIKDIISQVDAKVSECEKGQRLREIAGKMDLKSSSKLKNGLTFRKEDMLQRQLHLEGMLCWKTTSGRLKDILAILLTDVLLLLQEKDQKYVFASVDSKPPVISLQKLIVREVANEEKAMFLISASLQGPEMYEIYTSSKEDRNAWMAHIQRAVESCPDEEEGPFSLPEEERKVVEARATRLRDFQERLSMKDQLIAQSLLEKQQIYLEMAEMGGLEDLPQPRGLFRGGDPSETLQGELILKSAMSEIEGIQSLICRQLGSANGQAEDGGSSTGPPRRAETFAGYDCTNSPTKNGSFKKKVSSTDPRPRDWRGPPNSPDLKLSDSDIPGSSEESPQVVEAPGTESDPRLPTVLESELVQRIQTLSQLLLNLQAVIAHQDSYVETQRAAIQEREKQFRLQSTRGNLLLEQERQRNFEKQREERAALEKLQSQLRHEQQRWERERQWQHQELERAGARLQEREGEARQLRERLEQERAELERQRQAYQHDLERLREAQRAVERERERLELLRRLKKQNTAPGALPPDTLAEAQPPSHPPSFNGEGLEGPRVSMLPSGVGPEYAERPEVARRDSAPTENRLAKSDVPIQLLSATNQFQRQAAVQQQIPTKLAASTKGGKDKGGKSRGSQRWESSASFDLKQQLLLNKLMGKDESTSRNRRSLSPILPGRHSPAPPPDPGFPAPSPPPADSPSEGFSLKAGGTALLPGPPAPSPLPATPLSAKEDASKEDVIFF

[6] = system: active Dbl; test: αSMA / SRE reporter assays in cells overexpressing active Dbl (specificity); type: cell-based; settings: TAT-F1 4 μM
[7] = system: Human primary endothelial cells; test: LPS-induced endothelial activation; type: cell-based
Description: GEF-H1 inhibitors prevent endothelial inflammatory responses induced by LPS. Human primary endothelial cells were stimulated with LPS in the presence or absence of the indicated GEF-H1 inhibitors. […] TAT-P5 and TAT-F1 attenuate cytoskeletal remodelling, ICAM1 induction, and attenuate loss of barrier function.
8) GEF-H1 regulates inflammatory responses in various cell types. […] Similarly, cytoskeletal remodeling and cell junction disruption was also attenuated in TNFα and Thrombin-stimulated endothelial cells.

[8] = system: primary retinal pigment epithelial (RPE) cells; test: TGF-β stimulation of primary RPE cells (αSMA induction, junctional markers); type: cell-based
Procedure: Inhibition of TGF-β signaling in primary retinal pigment epithelial (RPE) cells. (A, B) Primary RPE cells were incubated with TAT-P5 or TAT-F1 and stimulated with TGF-β for five days. (A) αSMA and, as a loading control, tubulin expression were analysed by immunoblotting. […] (B) Expression of the junctional marker ZO-1 and tubulin were determined. (C) Primary RPE cells were incubated with TGF-β as in (A) but with stapled-P5, and expression of αSMA positive cells was analysed by immunofluorescence.
7) The inventors next tested the inhibitors in cell-based disease models. GEF-H1 drives fibrotic and degenrative responses in the RPE, which can be modelled by treating primary RPE cells with TGF-β.

[9] = system: GEF-H1; test: SRE / αSMA promoter luciferase reporter gene assays of GEF-H1 signalling; type: cell-based; settings: GEF-H1 overexpression
[10] = stapled-P5, different concentrations analysed

GQEDYDRLRPASYPDTDVI (P5 amino acid sequence) [Peptide P5]
inhibition of the interaction between RhoA and constitutively active GEF-H1 [1]: inhibited the interaction
inhibition of overexpressed GEF-H1, comparison of P1 to P5 ([2]; morphological assay (cell spreading) and SRE-driven reporter assay, peptide transfection): most effective inhibitor

CC(C)C[C@H](NC(=O)[C@@H](N)CCCNC(=N)N)C(=O)NC1(C)CCCC=CCCCC(C)(C(=O)N2CCC[C@H]2C(=O)N[C@@H](CC(=O)O)C(=O)N[C@H](C(=O)O)[C@@H](C)O)NC(=O)[C@H](CO)NC(=O)[C@H](C)NC(=O)[C@@H]2CCCN2C1=O (stereo partly shown) [stapled-P5, RL(X)PAS(X)PDT; X = 2,(4, pentenyl)alanine] (H-RL[ξαMeNle(6-ylidene)]PAS[ξαMeNle(6-ylidene)]PDT-OH; staple 3-7)
cell toxicity by caspase 3/7 activity in cell extracts [3, 10]: No significant cell toxicity
cell toxicity by release of LDH in the medium [4, 10]: No significant cell toxicity

GRKKRRQRRRPWQGQEDYDRLRPASYPDTDVI [TAT-P5]
cell toxicity by caspase 3/7 activity in cell extracts ([3]; TAT-P5 5-20 μM): No significant cell toxicity
cell toxicity by release of LDH in the medium ([4]; TAT-P5 5-20 μM): No significant cell toxicity

B1: F1: Fragment 1 of the auto-inhibitory C-terminal domain (CTD) of GEF-H1, SEQ ID NO: 2 (protein)
chain: SREDFPLIETEDEAYLRRIKMELQQKDKALVELLREKVGLFAEMTHFQVEEDSGGVALPALPRGLFRSESLECPRGERLLQDAIREVEGLKDLLVGPGVELLLTPRDPALLVDPDSGGSTSPGVTANGEARN
modifications: F1 amino acid sequence
inhibition of the interaction between RhoA and constitutively active GEF-H1 [1]: inhibited the interaction
auto-inhibitory activity / block of GEF-H1 function by CTD fragments ([2]; FIGS. 4 and 5 (cell spreading, SRE reporter, pulldown)): blocks GEF-H1 function

B2: TAT-F1: F1 fused to a TAT sequence to render it membrane-permeable, SEQ ID NO: 7 (protein)
chain: MGGYGRKKRRQRRRGGGSGYPYDVPDYAGGSSSREDFPLIETEDEAYLRRIKMELQQKDKALVELLREKVGLFAEMTHFQVEEDSGGVALPALPRGLFRSESLECPRGERLLQDAIREVEGLKDLLVGPGVELLLTPRDPALLVDPDSGGSTSPGVTANGEARN
modifications: TAT-F1 amino acid sequence
inhibition of p114RhoGEF overexpression-induced cell rounding [5]: not inhibited
transcription from the αSMA promoter in cells overexpressing active Dbl [6]: do not inhibit transcription
LPS-induced ICAM1 induction ([7]; immunoblotting): attenuate
LPS-induced cytoskeletal remodelling ([7]; immunofluorescence): attenuate
LPS-induced loss of barrier function ([7]; paracellular permeability): attenuate
downregulation of junctional markers ([8]; primary RPE cells treated with TGF-β, FIG. 11): inhibit downregulation
TGF-β-induced induction of αSMA, a marker of epithelial fibrosis ([8]; primary RPE cells, FIG. 11): effectively suppress
TGF-β induced αSMA expression normalised by tubulin (immunoblot) ([8]; primary RPE cells, TGF-β for five days): concentration-dependent repression
cell toxicity by caspase 3/7 activity in cell extracts ([3]; TAT-F1 1-4 μM): No significant cell toxicity
cell toxicity by release of LDH in the medium ([4]; TAT-F1 1-4 μM): No significant cell toxicity
transcription of the SRE-containing alpha-smooth muscle actin (αSMA) promoter [9]: inhibit transcription
